Reference: the NTF2 design screens of Basanta et al. (2020)

Assay: protease stability score; higher = more stable; yeast display proteolysis, trypsin and chymotrypsin;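 also: relative to predicted unfolded state with 0 unfolded-like and 1 meaning tenfold more protease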

Sequence	protease stability score
SEDDHRAHEWFRIVFHWLLTGDEEHFDRYADPHTKVDINGVEFHGREEVRRWIYEIRLKDNRIRSVRAVGEKNESDGHRNGHIGDKHIVTDVEVRLHVVDGRIKSIHIIIH	0.981
SEDDKMQEIAVELLEHTLKTGDEHTSKKLVDPHVRLQIGDKEHHGRDEVTRWLTELAQRADHMHIEIKDMFNVNGVVIMHGTLKIHIGDKELRLDVEWIILKYNGKWLIHSIHIR	1.94
SEDDKREQDYHHYMMEIILTGDFKELFDLADPNVRLRIGDKHFHGRERMLDWYKHLSDRYKNARIHLHKKDYIGEKVIFHEIIHWNGKEVELHINMVIVNGRIRSIHVEDNER	1.39
SEDDKRLREIADLWKHAFLTGDFNLIHKLMDPHARWVVNGQHVHGMEEWEHFLERIDVFRIESSRTDHIEVYGDKVQIDGHSNVKIQIGDKKIDLITRMEIRLIIINGRYHQVEHIVR	0.707
SEDDKVVEEIARLWLHWVLTGDEEHLRELLDPHVRLHIDGRTYIGREEFLHKFHELRIHRFELKSIHVIGDKAQVDGHQDYKYNGKRIHLDTKVDLVVVDGVMHEIHIHLK	1.78
SEDDNLNEWMMRVWLTTLRTGDEKNTERLLDPNARLHVGDKDFHGRELLTKHFYDEVETLGFKHSELKRLLYQGEKMIIHVEVNINGVDIHIDVHIRKIDGRWYIHQVHVR	2.14
SEDDNMAEHVLRYFIEHHLTGDFDSILKLMDPNMRLEVNGREHWGRKRWSEHLLRMGFDHVDIEEHRINSYGNFAYEIIHGRYHINGQEINITLIINVEKVNGKWIIREVTIVKR	1.74
SEDDQLVRELMRRIMKNIMTGDEEKHLNLVDPHARTIFDGREYHGRELYTMVFRILYNRIDHWTDLKVEHVSIYDGVIEIHVRADVDINGKRTEITMIIFVNKVNGRWIIEYVVYS	1.37
SEDDRDAEKMSKDWIHLMLTGDEDHLRELLDPNVRMEQGDKEFIGRELLVEVFSRTVKHLGIKHIQLEESRTNVQGEKVIVILIMDYRAENRRVEFHIHLIVDKVNGRWLVQSVRFRFK	1.25
SEDDRDANNMREILQHLWFTGNEEEFLRLLDPDTLFHVNGQQKVGRERVEELLHHLLEKLGADHEEIHDWEVRLQGDKLDIHVHIRLIIGDKEFRIHIDFHIYKIDGRWRIHSVKLEIK	2.1
SEDDRDSKEAKHLLHELIRTGDEDELVKLLDPNMIIIVGDKEYIGWEQAVRLLRELNRRFDHVELRFRDIEIQGEWVDTDIELIYRFDGRETRIDTRFIAYKVDGRWFNHHIEIK	0.582
SEDDRENHRFMEQFLHDWETGDEDSLRKLADPDVKVRINGVDLHGWSFFEDYLRRVDHIDDFKIDHVEIQGDKIKIHGQQHGRIDGRRDTYKVQNFFIKIDGKWRLKMVINR	1.34
SEDDSDLEEYLRLWVKAWMTGDEDLLRTLLDPHTRFQSHVNGKEVERHGMEVVSHWLRKFKNIRFEVHHVHVVNGVLYHETRVKFDGVRIETELNAIVVDGKNKFLNIHIK	0.299
SEDEDAFNELLKIHVEALHTGDWRSIRELLDPNARVRIDGKEYVGRESVEEHLRRIKNLTIHEIRIDDIRIQGDYVHVDGHVRGHFNGQEELHHVEFIMLKVNGRWRIKEIRIK	2.26
SEDEDELKEWIRIIIHLLTTGNEDLIENNADPNVRIEFNGKTYHGMEDFHEWMRYAINELRFHDFRLDSFRIVNGKVDLNTTLIGNINGVLTRRETRMIIIKVNGRWLIHALVFK	1.75
SEDEDFAKKWTDEILTAFLTGDWKLLSDLVDPNVRVIYGEFHFHGREQTIKWLEHHYREIRIHDYKIKHIEVQGEKVIVDGEVDRHYNGRRHRIHTEIIIIIFNGVIREIEFREN	2.05
SEDEDFMQKALKHDWELWETGDEEKIQKQADPHVRMDFDGVEYHGMELFSELLDRYLRKVKGLQIRLRHVHVKIINGQAIMDIDGTVNINGREIRLHIKIFNEKINGKWIHSSIRFEFR	1.21
SEDEDHARLMFELLLRMITTGDEESLRELVDPNVRVSVDGVDLHGWDSLSKFLKHIRIRVDHSEMHDMRVIDGVLQANTHMQITVEFNGRRVQRQVETRVEVVKINGKWAIHRFSVH	2.55

Sequence	protease stability score
SEDEDIAKEILRLLLEALRTGDWHTVHRLMDPHARVHVNGRDFIGMEEVLRWLEEFLRHMRLRSLTVHDIRIFDGRLHVDSRSDVEIDGRRISIETEVIILKVDGRWHVKSIIFR	1.36
SEDEDISRNFLELEWKKHMTGDWRTFAENIDPNARVDIDGVEFHGRELISRLMHEKIRKHGVKIKHLHIDHVSSQGDKIHINTTLVGLFNGRDTHLEVHIVITKINGRWVLQEFHFD	0.591
SEDEDLFHHVLHVWLNAMETGDFEVFKHLLDPRTKEHQGDKHLIGREDALRKFREEWEKYPNMRVEIRVDDWDIQGNKIRAKVHIIIRQGDKTYSVEIDLIMVKVNGRWFIHSIIIH	0.966
SEDEDLSRHLSELWLDALRTGDEKSTHKMADPHTRVEVGDKTDHGMEVWNRIFERFKGARLEITEWRTIGEKVHYHMHIEYGDKHVDVEIEIIQINGQVKEFIIRVRIK	0.249
SEDEDNMHEFFRIWSRVQETGDEEAMLKLMDPNVRTDINGVELHGREEFEKELHRLIFEWGFDRFVVHIEHEDIFNGRIHVRSRVIYGDKEVHVIIHVYKVNGQWRVEELRFE	1.41
SEDEEAAHRFLQMFLSTSHTGDEKESRELADPHVRIDIDGQKHHGRHEWVKVFRHLRIHNIEIKDYHVIDGRLRLDYKVDLEVGDKKIEHRLHIDVEKIDGRWEIQRVHLI	1.58
SEDEEAAHWLTLVLIELFRTGDEDSFTKLLDPNARMHVGDKDFHGRHHILHWILHFLRELGVDHRDMKVEDQHFYDGRLELHVTIIIIVGDKKIRIESHFYVEKVNGRWLVKKIHIH	1.41
SEDEEAAKHMFELLVHHIETGDEESLRKLLDPNVRMDIDGRIIHGREIFARQMFLESLHIRTEFRLKHVDTIGEKLHLFTEVTYKINGVHIKRDTRVIILKVDGRWVFHSIRFE	0.951
SEDEEAAKRLTDLLIHNWETGNEDELHRLIDPNMREDVNGKEFHGWSYMVHFLRRIDHVFSHITIHDIKSVGDYVYIDGTVDEIFHIGDSKIRINIRVTIIILKINGRWIMTHVHVK	1.32
SEDEEAIERFLREFVKAERTGDEKTILSLMDPHVRIHQGDWEVHGRDDLRHFFHRIDHVRSRFHLTHVDHQGDKAIFKGTVEYHIHVDGKDIHSTSSVDIHVRKINGRWLMHNVHIE	1.63
SEDEEAIRHALRIFEEVLQTGDEHSIENLFDPNTRIDINGKHLHGWHKLEEWLSRFDHLEVHVHIHSSNVFDGRIHNDTRVKMHLYINGKIIELHQETHIISKKVNGRWYVKMIIIR	1.17
SEDEEALKKAIDLLFESLLTGDERELEKLADPNYRMEVNGKEIHGRELFSKTMIDILQRLGIDHIDFRIEHDETQGDKVIIEGKLIFKVGDKHIEIKSRLIVLKVDGQWILRHSRMH	2.05
SEDEEASKEMLERLIESIKTGDWRHDSNMVDPHARFRVGDKEFHGRDDLEHLVKHLGIKHVEVQHVRTYGNKMELHGWERFNGREVRVELHFVKIDGQWVLTEYRVR	0.616
SEDEEAVHKMLEMWIKHINTGDERHLHKLADPNYRVEQGDKELHGRHAYEYVFHQFDHWKEIRIEEVKTYDGRVKIKGREVYHINGQEIESEVRIITTKVDGQWHLKSILFK	0.525
SEDEEAVRRILKKLLQSHETGDFRMFDRMLDPHVRLDVNGREHIGRESVHRVVEELRIEDMRLTDMHSQGNYLDIDGRLDGSVNGKKDTYRVRLVILKVDGRWIIEEMRIG	1.95
SEDEEAVRRLIRMLVEWESTGDFESVLRLFDPHARYRIDGVDLHGRHAWERLYKEIRINSVRVKRIEMQGDKVHVDSRLRGEIDGRETDLEVEIIIRKVNGRWVIEEVRIH	2.2
SEDEEDAERLIRELEHAWHTGDEKYLWEMIDPHARFIIGDKEFHGRDLQLRILHRLIKELGVSRFELHIEHFEVIDGRLHTEGRLNVNGRILKTHLILRKIDGRWLIKSDELR	1.49
SEDEEDARRMVEIWKRSLETGDFKRILELMDPNTKYLFNGREYHGRHFVSRLFTEELERIKGARIEEESLEIQGNKVILHTRLHINGQHFKQITIIMKIDGKWFLESFSVE	2.01
